Source: the nanobody polyreactivity screen of Harvey et al. (2022)

Assay: yeast display, Sf9 membrane polyspecificity reagent, FACS + sequencing; frameworks hold sequencing errors
Method in brief: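 Galactose-induced (36–48 hours) yeast carrying a synthetic nanobody display library were exposed to 10% biotinylated, detergent-solubilized Sf9 membrane reagent at 4 °C for 1 hour. FACS followed streptavidin microbead enrichment, using low and high (top ~1%) gates for expression (anti-HA) and reagent binding (streptavidin). Colony PCR, MiSeq 2 × 250 sequencing and CDR-length filtering followed. Labels for polyreactivity reflect the gate of origin.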

Sequence | polyreactivity (PSR sort gate)
QVQHVESGGGLVQAGGSLRLSCAASGFTFTAYAMGWYRQAPGKERELVAAISYRGGRTNYAYSVKGRFTISRDNAKNTVYLQMNSLKPEDTAVYYCAARPRISTREMDYWGQGTKVTVSS | high polyreactivity
QVQLVESGGGLVQAGCSLRGSCAAYRSTFIRYAMGWSRPAPGKERELVAAITWRGGSTYYADSVKGRFTISRDNEKNTVYLQMKSLKPDDSAVSFCAARDRDTRNYYWVQGTQVTVSS | high polyreactivity
QVQLVESGGGLVQAGGSLRLSCPASGSIFDFYAMGWYRQAPGKERELVAAIDDIDDSTYYADSVKGRFTISRDNAKNTVYLQMNSLKPEDTAVYDCAAELRPGYRSSYGLIYDYWGQGTQVTVSS | low polyreactivity
QVQLVESGGGLVQAGGSLRLSCAASGSTFPYYAMGWYRQAPGKERELVAAITSGGSTNYADSVKGRFTISRDNAKNTVYLQMNSLKPEDTAVYYCAADFALPNALPEYDYGAFDYNYWGQGTQVTVSS | low polyreactivity
QVQLVESGGGLVQAGGSLRLICAASGFTFSYYAMGWSRQAPGKERELVAANSWSGTSTYYADSVKGRFTISRDNAKNTVYLQMNSLKPEDTAVYYCAAGYSASRKVDYRGQGTQVTVSS | high polyreactivity
QVQLVESGGGLVQAGGSLRLSCAASGGIFEANVMGWYRQAPGKERELVAAITSGGSTNYADSVKGRFTISRDNAKNTVYLQMNSLKPEDTAVYYCAADRPDGWVDYWGQGTQVTVSS | low polyreactivity
QVQLVESGGGLVQAGGSLRLSCAASGRILWGYAMGWYRQATGKERELVATITRGGSTNYADSVKGRFTISRDNAKNTFYLKMNRVKPEDTAFYDCAAGELYIVNYTYYFEMDYWGEGTQVTVSS | high polyreactivity
QVQLVESGGGLVQAGGSLRLSCAASGSTFWGYTMGWYRPAPGKERELVAAITGSGGSTNYADSVKGRFTISRDNAKNTVYLQMNSLKPEDTAVYYCATQGITPSNSYDYWGQGTQVTVSS | low polyreactivity
QVQLVESGGGLVQAGGSLRLSCAASGSILVYYAMGWYRQAPGKEREFVAAITRSGGSTYYADSVKGRFTISRDNAKNTVYLQMNSLKPEDTAVYYCNARDVVWKRFTRYDFWGQGTQVTVSS | high polyreactivity
QVQLVESGGGLVQAGGSLRLSCAASGSTFQLYAMGWDRQAPGKERELVAAITSSAGRTYYADSVKGRFTISRDNAKNTVYLQMNSLKPEDTAVYYCAKDGSFTFWGQGTQVTVSS | low polyreactivity
QVQLVESGGGLVQAGGSLRLSCAASGFTFKRYAMGWYRQAPGKERELVAAISYSGGSTYYADSVKGRYTISRDNAKNTVYLQMNSLKPEVTAVYYCNTGRRYYSYRRDYWGQGTQVTVSS | high polyreactivity
QVQLVESGGGLVQAGGSLRLSCAASVYTSNYYAMGWYRQAPGKEREFVAAITASSVSTYYADSVKGRFTISRDNAKNTVYVQMNSLKPEDTAVYYCAVVYISYTSWLWVYWLVDFDYWGQGTQVTVSS | low polyreactivity
QVQLVESGGGLVQAGGSLRLSCAASGSIFKYNAMGWYRQAPGKERQLVAAISSSGGYTSYADSVKGRFTISRDNAKNTVYLQMNSLKPEDTAVYYCNAPYLIYKKGRYDYWGQGTQVTVSS | high polyreactivity
QVQLVESGGGLVQAGGSLRLSCAASALTFRVYAMGWYRQAPGKERELVAAISFSGSSTFYADSVKGRFTISRDNAKNTVYLQMNSMKPEDTAVYYCAAGASEAVDVYDYWGQGTQVTVSS | low polyreactivity
QVQLVESGGGLVQAGGSLRLSCAASGRTFGVYALGWYRQAPRKERELVAGIRWRGGSTYYADSVKGRFTISRDNAKNTVYLQMNSLKPEDTAVYYCAADVYLVKYDYWGQGTQVTVSS | low polyreactivity
QVQLVESGGGIVQAGGSLRLSCAASGRIFEWYAMGWYRQAPGKERELVAAITKTAGSTYYADSVKGRFTISRDNAKNTVYLQMNSLKPEDTAVYYCNAKTYHSRRKVLRFDYWGQGTQVTVSS | low polyreactivity
QVQLVESGGGLVQAGGSLRLSCAASGRTFYYNVMGWYRQAPGKERELVAAISTGVSTNYADSVKGRFTISRDNAKNTVYLQMNSLKPEDTAVYYCNARSYRWYRPVYRYDYWGQGTQVNVSS | high polyreactivity
QVQLVESGGGLVQAGGSLRLSCAASGRTFSYYARGWYRQAPGKEREFVAAISSSGGSTNYADSVKGRFTISRDNAKNTVYLQMNSLKPEDTAVYYCNAGSGYTGVYLWYYWRYDYWGQGTQVTVSS | low polyreactivity
QVQLVESGGGLVQAGGSLRLSCAASGFTLGYNAMGWYRQAPGKERELVAGITWSGGSTSYADSVKGRFTISRDNAKNTVYLQMYSLKPADTAVYYCAKLRRYSGWLPWPYAYDYWGQGTQVTVSS | high polyreactivity
QVQLVESGGGLVQAGGSLRLSCAASGSTFAIYPMGWYRQAPGKETALVAAITRSGGNTYYADSVKGRFTISRDNAKNTVYLQMNSLKPEDTAVYYCNAETYYWSAYAQYDYWGQGTQVTVSS | high polyreactivity
QVQLVESGGGLVQAGGSLRLSCAASGSTFRYYAMGWYRQAPGKEREMVAAISTSGGRTYYADSVKGRFTISRDNAKNTVYLQLNSLKPEDTAVYYCNARESRGYSYQTWKYYYWGQGTQVTVSS | high polyreactivity
QVQLVESGGGLVQAGGSLRISCAASGFILTGYTMGWYRQAPGKERELVAAISWSGARTYYADSVKGRFTISRDNAMNTVYLQMNSLKPEDTAVYYCARDYYRPTQRYDYWGQGTQVTVSS | high polyreactivity
QVQHVESGGGLVQAGGSLRLSCAASGRTFKGYAMGWYRQAPGKESQLVAGISTGGNTNYADSVMGRFTISRDNAKNTVYLQMNSLKPEDTAVYYCNAVYRGFTHYTGYEYWGQGTQVTVSS | high polyreactivity
QVQLVESGGGLVQAGGSLRLSCAASGSILTSYAMGWSRQAPGKERELVAAISTTGGSTYYADSVKGRFTISRDNAKNTVYLQMNRLKPEDSAVYYCAAAGRTYRPGTGGYGYWGQGTQVTVSS | low polyreactivity
QFQLVESGGGLVQAGGSLRLSCAASGSTFPYYAMGWYRQAPGNERELVASIRKRGGGTYYADSVKGRFTISRDNAKNTVYFQMNILKPEDTAVYYCAVRVYQFRYTGYDYWGQGTQVTVSS | high polyreactivity
QVQLVESVGGLVQAGGSLRLSCAASGDTFTSYAMGRYRQAPGKVRELVAAISRRGGSTYYAESVKGRFTISRDNAKNTVYLLMNSLKPEDTAFYYCAAKSYSYTEFDYGGQGTQVTVSS | high polyreactivity
QVQLVESGGGLVQAGGSLRLSCAASGNIFGWYAMGWYRQAPGKERELVAAISSGGRTNYADSVKGRFTISRDNAKNTVYLQMNSLKPEDTAVYYCAVGLHKRPPPPRFRQYNYWGQGTQVTVSS | low polyreactivity
QVQLVETGGGLVQAGGSLRLSCAASGFTFYSYAMGWSRQSPRKEREFVAAGSTYYADSVKGRFTISRDYAKNTVYLQMNSLKPEDTAVYYCAADSYDVSRRYEYEYWVQGTQVTVSS | low polyreactivity
QVQLVESGGGLVQAGRSLRLSCAASGRIFSRYTMGWYRQAPGKERELVAANSYRGGSTYYADSVKGRFTISRDNAKNTVYLQMNSLKPEDTEVYYCAARVQAIYRYDYCGQGTQVTVSS | high polyreactivity
QVQLVESGGGLVHAGGSLSLSCAASGSIFGYYAKGWYRQAPGKERELVAAITVSGGSTYYADSVKGRFTISRDNAKNTDYLQLISLKPEDTAVYYCAADDIYGEYYYWGQGTQVTVSS | high polyreactivity
